54 molecules from paper PMC314469, “Protein Interaction Networks by Proteome Peptide Scanning” (PLoS Biology, 2004) can be followed below.

B1: YLL018C 545-557 (peptide)
chain: ASLFPRDPKRLRP
B2: YMR115W 51-64 (peptide)
chain: APIPESPANSPTRP
B3: YGL133W 239-251 (peptide)
chain: ASSKMGAPWSVKP
B4: YDR200C 169-182 (peptide)
chain: ATFETKFLVVPFKP
B5: YLR226W 381-393 (peptide)
chain: AKDPIRTPDAKKP
B6: YBR031W 19-32 (peptide)
chain: ALPLPAVFSAPIRP
B7: YPL019C 671-683 (peptide)
chain: ASSFQLPPGVKKP
B8: YLR430W 2217-2229 (peptide)
chain: ASSSPFIPKKRKP
B9: YLR392C 95-107 (peptide)
chain: ALDGSSKPFKVKP
B10: YJR124C 130-142 (peptide)
chain: AMIAHLSPHNARP
B11: YDR150W 1608-1620 (peptide)
chain: AIRKENLPNLEKP
B12: YDR331W 298-310 (peptide)
chain: ANVQNVIPDDSKP
B13: YGR234W 289-302 (peptide)
chain: AMLEEQVKSNPNRP
B14: YEL007W 23-36 (peptide)
chain: ATLDGKLKHIPRRP
B15: YLR281C 14-27 (peptide)
chain: AVLLIKKNKLPPRP
B16: YLR289W 219-231 (peptide)
chain: AIIDRIPPPTGRP
B17: YKL108W 91-104 (peptide)
chain: AISIFDMNLSPIKP
B18: YJL041W 183-196 (peptide)
chain: ATTNDDKKTEPDKP
B19: YDL145C 797-809 (peptide)
chain: ASNFVQRPVISKP
B20: YOR098C 642-655 (peptide)
chain: AQKDSSVVSEPKKP
B21: YEL056W 186-199 (peptide)
chain: ALWEVGSGGDPTKP
B22: YCL048W 27-39 (peptide)
chain: AIDPPRRPHNVKP
B23: YOL138C 1118-1131 (peptide)
chain: APIIGSPRHAPSRP
B24: YIL031W 418-430 (peptide)
chain: ATTEFETPELFKP
B25: YOR251C 241-254 (peptide)
chain: ALKDFHSTLDPSKP
B26: YDL129W 167-179 (peptide)
chain: ASSAELRPLLERP
B27: YCL055W 274-286 (peptide)
chain: ARTGYETPVKVRP
B28: YEL070W 157-170 (peptide)
chain: APEIINDLNHPEKP
B29: YGL008C 735-747 (peptide)
chain: AIAYDNAPYSPKP
B30: YMR300C 181-193 (peptide)
chain: ALFGFRDPNGIRP
B31: YPL012W 496-508 (peptide)
chain: APLNLDNPSSERP
B32: YGR276C 328-341 (peptide)
chain: AIIYHHKAGDPFKP
B33: YGL060W 533-546 (peptide)
chain: ANSVPIMPTLPPRP
B34: YGL131C 433-446 (peptide)
chain: ALNDSMFFPYPFKP
B35: YML059C 513-525 (peptide)
chain: ASSKLKKPPKAKP
B36: YBR229C 581-593 (peptide)
chain: AIKSIYSPSDKRP
B37: YBR203W 447-459 (peptide)
chain: AKSTRSSPQKAKP
B38: YKR089C 707-719 (peptide)
chain: ASTYGRSPSGFRP
B39: YAR033W 173-185 (peptide)
chain: ATSIGNSPVTAKP
B40: YDR406W 122-134 (peptide)
chain: ANISTSDPDFYKP
B41: YOL126C 141-154 (peptide)
chain: ASIVVIPAGVPRKP
B42: YLR189C 1077-1089 (peptide)
chain: ASLRAGLPTVIKP
B43: YMR016C 645-657 (peptide)
chain: ASTLGITPADSKP
B44: YPL085W 1841-1854 (peptide)
chain: ASKLVEQHMAPPKP
B45: YHR205W 678-690 (peptide)
chain: ALKQKKIPPPFKP
B46: YMR072W 106-119 (peptide)
chain: AKKEFDEKLPPKKP
B47: YGL099W 6-18 (peptide)
chain: APKKWKAPKGPKP
B48: YLR335W 584-596 (peptide)
chain: ATKVDATPEESKP
B49: YGR170W 87-100 (peptide)
chain: ALPTGAPPTTPSRP
B50: YDL078C 69-82 (peptide)
chain: AQVVLIPAGVPRKP
B51: YJL041W 251-264 (peptide)
chain: ASQPEPTTNEPAKP
B52: YIL111W 69-82 (peptide)
chain: AWYISYGEWGPRRP
B53: YJL128C 177-190 (peptide)
chain: AQLLNPNRRAPRRP
B54: YHR009C 132-144 (peptide)
chain: AYNLNVPPPKKRP

The experiment concerns the target T1, Abp1 SH3 (ABP1_YEAST), P15891.
T1 chain: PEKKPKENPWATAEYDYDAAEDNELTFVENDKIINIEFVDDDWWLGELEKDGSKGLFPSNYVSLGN
Put plainly: SPOT array.
B1 gave a normalised SPOT signal, Boehringer light units (BLU); mean over the file's lines of this peptide of 1990.

In turn, B2 returned a normalised SPOT signal, Boehringer light units (BLU); mean over the file's lines of this peptide of 190.

For the molecule B3, the normalised SPOT signal, Boehringer light units (BLU); mean over the file's lines of this peptide is 146.

In the case of B4, the normalised SPOT signal, Boehringer light units (BLU); mean over the file's lines of this peptide turned out to be 74.

As to B5, the normalised SPOT signal, Boehringer light units (BLU); mean over the file's lines of this peptide stood at 328.

Take B6: the normalised SPOT signal, Boehringer light units (BLU); mean over the file's lines of this peptide came out at 49.7.

For the molecule B7, the normalised SPOT signal, Boehringer light units (BLU); mean over the file's lines of this peptide is 143.

Molecule B8 returned a normalised SPOT signal, Boehringer light units (BLU); mean over the file's lines of this peptide of 2110.

B9: the normalised SPOT signal, Boehringer light units (BLU); mean over the file's lines of this peptide turned out to be 223.

As to B10, the normalised SPOT signal, Boehringer light units (BLU); mean over the file's lines of this peptide worked out at 464.

Molecule B11 yielded a normalised SPOT signal, Boehringer light units (BLU); mean over the file's lines of this peptide of 72.3.

As for B12, the normalised SPOT signal, Boehringer light units (BLU); mean over the file's lines of this peptide was determined as 35.4.

Molecule B13 yielded a normalised SPOT signal, Boehringer light units (BLU); mean over the file's lines of this peptide of 0.

B14 had a normalised SPOT signal, Boehringer light units (BLU); mean over the file's lines of this peptide of 630.

B15: the normalised SPOT signal, Boehringer light units (BLU); mean over the file's lines of this peptide stood at 9430.

B16: the normalised SPOT signal, Boehringer light units (BLU); mean over the file's lines of this peptide came to 132.

As for B17, the normalised SPOT signal, Boehringer light units (BLU); mean over the file's lines of this peptide worked out at 40.2.

The molecule B18 returned a normalised SPOT signal, Boehringer light units (BLU); mean over the file's lines of this peptide of 63.8.

B19: the normalised SPOT signal, Boehringer light units (BLU); mean over the file's lines of this peptide was 2410.

With B20, the normalised SPOT signal, Boehringer light units (BLU); mean over the file's lines of this peptide was determined as 99.8.

In turn, B21 displayed a normalised SPOT signal, Boehringer light units (BLU); mean over the file's lines of this peptide of 80.3.

For the molecule B22, the normalised SPOT signal, Boehringer light units (BLU); mean over the file's lines of this peptide is 2120.

Take B23: the normalised SPOT signal, Boehringer light units (BLU); mean over the file's lines of this peptide came to 8310.

In turn, B24 came in with a normalised SPOT signal, Boehringer light units (BLU); mean over the file's lines of this peptide of 78.7.

B25 yielded a normalised SPOT signal, Boehringer light units (BLU); mean over the file's lines of this peptide of 91.9.

The molecule B26 yielded a normalised SPOT signal, Boehringer light units (BLU); mean over the file's lines of this peptide of 78.5.

In turn, B27 gave a normalised SPOT signal, Boehringer light units (BLU); mean over the file's lines of this peptide of 342.

For the molecule B28, the normalised SPOT signal, Boehringer light units (BLU); mean over the file's lines of this peptide worked out at 86.

In the case of B29, the normalised SPOT signal, Boehringer light units (BLU); mean over the file's lines of this peptide was determined as 173.

The molecule B30 came in with a normalised SPOT signal, Boehringer light units (BLU); mean over the file's lines of this peptide of 102.

The molecule B31 displayed a normalised SPOT signal, Boehringer light units (BLU); mean over the file's lines of this peptide of 103.

Molecule B32 came in with a normalised SPOT signal, Boehringer light units (BLU); mean over the file's lines of this peptide of 155.

With B33, the normalised SPOT signal, Boehringer light units (BLU); mean over the file's lines of this peptide came out at 112.

B34 gave a normalised SPOT signal, Boehringer light units (BLU); mean over the file's lines of this peptide of 138.

With B35, the normalised SPOT signal, Boehringer light units (BLU); mean over the file's lines of this peptide stood at 2150.

B36 came in with a normalised SPOT signal, Boehringer light units (BLU); mean over the file's lines of this peptide of 351.

B37 yielded a normalised SPOT signal, Boehringer light units (BLU); mean over the file's lines of this peptide of 88.6.

Molecule B38 returned a normalised SPOT signal, Boehringer light units (BLU); mean over the file's lines of this peptide of 517.

As to B39, the normalised SPOT signal, Boehringer light units (BLU); mean over the file's lines of this peptide turned out to be 71.

B40: the normalised SPOT signal, Boehringer light units (BLU); mean over the file's lines of this peptide came out at 99.2.

In the case of B41, the normalised SPOT signal, Boehringer light units (BLU); mean over the file's lines of this peptide stood at 199.

Turning to B42, the normalised SPOT signal, Boehringer light units (BLU); mean over the file's lines of this peptide is 78.3.

Take B43: the normalised SPOT signal, Boehringer light units (BLU); mean over the file's lines of this peptide stood at 93.1.

The molecule B44 returned a normalised SPOT signal, Boehringer light units (BLU); mean over the file's lines of this peptide of 122.

In turn, B45 registered a normalised SPOT signal, Boehringer light units (BLU); mean over the file's lines of this peptide of 5260.

As for B46, the normalised SPOT signal, Boehringer light units (BLU); mean over the file's lines of this peptide stood at 87.3.

B47 yielded a normalised SPOT signal, Boehringer light units (BLU); mean over the file's lines of this peptide of 332.

B48 returned a normalised SPOT signal, Boehringer light units (BLU); mean over the file's lines of this peptide of 103.

Regarding B49, the normalised SPOT signal, Boehringer light units (BLU); mean over the file's lines of this peptide was 92.1.

The molecule B50 gave a normalised SPOT signal, Boehringer light units (BLU); mean over the file's lines of this peptide of 53.3.

B51 registered a normalised SPOT signal, Boehringer light units (BLU); mean over the file's lines of this peptide of 114.

B52 came in with a normalised SPOT signal, Boehringer light units (BLU); mean over the file's lines of this peptide of 78.4.

B53 registered a normalised SPOT signal, Boehringer light units (BLU); mean over the file's lines of this peptide of 364.

B54 returned a normalised SPOT signal, Boehringer light units (BLU); mean over the file's lines of this peptide of 1510.
